One series concerns the target T1, SdiA (6His-SdiA) (Photorhabdus laumondii, UniProt Q7N9K5).
T1 construct: gene plu0320
As to the kind of experiment: nanoDSF thermal shift (intrinsic Trp fluorescence […] nm). The settings on record: 10 nM ligand; 0.3 mg/mL SdiA; 1.5 °C/min; versus solvent control. It counts as binding. A general note: DSF heats the sample and reads unfolding from a dye or from intrinsic fluorescence.

Series [1] has as its system T2, SdiA (LuxR solo, 6His-SdiA) (Photorhabdus luminescens DJC), ORF:60ed44fe.
T2 sequence: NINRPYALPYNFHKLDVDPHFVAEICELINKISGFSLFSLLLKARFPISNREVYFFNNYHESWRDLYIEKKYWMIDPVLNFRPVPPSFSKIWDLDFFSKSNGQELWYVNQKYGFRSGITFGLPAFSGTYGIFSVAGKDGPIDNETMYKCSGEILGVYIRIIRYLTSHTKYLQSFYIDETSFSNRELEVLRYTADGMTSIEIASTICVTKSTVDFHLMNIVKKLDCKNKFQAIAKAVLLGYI
The series is described as follows: SPR. To be noted: SPR Biacore T200, SA chip, HBS-EP+ (10 mM HEPES pH 7.4, 150 mM NaCl, 3 mM EDTA, 0.005% Tween-20), SdiA 1.5625-200 nM, 30 uL/min, 1:1 fit; temperature not …. A general note: SPR reads the build-up and loss of mass on a sensor chip optically.

Series [2] relates to SdiA (LuxR solo, 6His-SdiA) (Photorhabdus luminescens DJC). As to the kind of experiment: SPR. The settings on record: SPR Biacore T200, SA chip, HBS-EP+ (10 mM HEPES pH 7.4, 150 mM NaCl, 3 mM EDTA, 0.005% Tween-20), SdiA 1.5625-200 nM, 30 uL/min, 1:1 fit, temperature not ….

pKd: −log10 of the molar value.

T1 sequence (Q7N9K5 entry or part of it): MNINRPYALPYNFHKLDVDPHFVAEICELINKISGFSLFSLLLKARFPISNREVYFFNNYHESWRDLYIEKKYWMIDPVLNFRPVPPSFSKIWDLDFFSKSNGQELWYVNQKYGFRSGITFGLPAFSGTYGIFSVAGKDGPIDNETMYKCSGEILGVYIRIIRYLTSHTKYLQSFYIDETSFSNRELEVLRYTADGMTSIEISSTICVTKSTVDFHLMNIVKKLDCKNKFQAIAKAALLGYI

For `CCCC(=O)N[C@H]1CCOC1=O` [C4-AHL], the DTM at SdiA (6His-SdiA) is −3.9 °C.
Still for that read-out and setting: as for `CCCCCCCCCCCC(=O)N[C@H]1CCOC1=O` [C12-AHL], the entry is “+1.6 °C”.
In series [1], “GACACCTCTTTACATATTTAAACTATTTATTGGGAATCGAAAGGTTATTTTGCTTACTCATTATTATTCTAATAACTTTCTTTTTATATAATTAACTATTAAAGTTGAAACAGCTACTGGGATAAATCATAGTTTATATGGGAAAATTACTCATATATTTATTAGGTATTGCTTCATATAG (double strand) [PaidA promoter fragment]” had a pKd of 8.36.
For “GTCATTATTCGCTGTTCACTCATCTTTTAATGGCACAATAAGCCCTGACTTTTTACTTTAATTACCCGCTTTAGATCGAGAGGGCTATGTTAGGGTGGCAGTCTAAAAATATGCCGTATATTACTTTGGGTTAATATGGCATTGAATGGCGTAGGTTATAGGGTGGTTTAACACGAGGTTTTT (double strand) [PfliE promoter fragment]”, the binding result in series [1] was “no binding”.
Regarding PaidA promoter fragment, the pKd in series [2] (3.3% (v/v) plant root exudate (PRE), ka 8.2e4 /M/s, kd 1.1e-3 /s) is 7.88; in series [2] (no ligand, ka 3.9e5 /M/s, kd printed 1.7 x 103 /s (1.7e-3 from Kd)), 8.36.
On to PsdiA promoter fragment, for which the pKd in series [2] (3.3% (v/v) plant root exudate (PRE), ka 1.8e5 /M/s, kd 2.0e-2 /s) is 6.96; in series [2] (no ligand, ka 1.1e5 /M/s, kd 3.1e-3 /s), 7.56.

Broadly, the pKd is the negative decadic logarithm of the Kd, by convention in mol/L. Read a low pKd as a large Kd.
